Assay results taken from article PMC9849103 (Nature Communications, 2023).

B1: C2588 (antibody, V domains shown)
VH: QVQLVQSGAEVKKPGSSVKVSCKASGDTFNIYAINWVRQAPGQGLEWMGRIIPRFGMANYAQKFQGRVTMTADKSTSTAYMDLISLKSEDTAVYYCATSAYLSGSGHYFDYWGQGTLVTVSS
VL: EIVLTQSPATLSLSPGERATLSCRASQSVGGSFLAWYQQKPGQAPRLLIYGASSRATGIPDRFSGSGSGTDFTLTISRLEPEDFAVYFCQQYASSRTFGQGTKVEIK
notes: source: 293-6E cells, transfected, purified (Protein G Sepharose)
B2: C3083 (antibody, V domains shown)
VH: EVQLVESGGGFVRPGGSLRLSCSTSGFTFSMFAMHWVRQAPGKGLEYVSGVSSNGLNTYYADSVKGRLVISRDDSKNTLYLQMTGLRVEDTAVYYCVKDDDFGDPGYGYHLDYWGQGTLVTVSS
VL: QSALTQPASVSGSPGQSITISCTGTSSDVGGYNYVSWFQQHPGKAPKLVIFEVSNRPSGISDRFSGSKSGNTASLTISELQAEDEADYYCSSYTSRIPIIFGTGTKVTV
notes: as for B1
B3: C3054 (antibody, V domains shown)
VH: EVQLVESGGGLGQPGGSLRLSCVASGFSFSTYSMNWVRQAPGKGLEWLSYINAGSTTIYSADSVTGRFSISRDNAKNSLYLHMNSLRADDTAVYYCARGVPFDYWGQGTLVTVSS
VL: DIVMTQTPLSLPVTPGEPASISCRSSRSLLDSDDADTYLDWYLQKPGQSPQLLIYTLSYRASGVPDRFSGSGSGTDFTLKISRVEAEDVGVYYCMQRIQFPWTFGQGTKVEIK
notes: as for B1
B4: C3060 (antibody, V domains shown)
VH: QVQLQESGPGLLKPSQTLSLICTVSGGSISSGDYYWNWIRQTPGKGLEWIGYIYYSGITYYNPSLKSRLSISLDTPKNQFSLKLTSVTAADTAVYYCATGPPTVTTENFDNWGQGTLVTVSS
VL: QSVLTQPPSVSAAPGQKVTISCSGSSSNIGNYYVSWYQQLPGTAPQLVIYDNNKRPSGIPDRFSGSKSGTSATLAITGLQTGDEADYYCGTWDASLNAGVFGGGTRLTVL
notes: as for B1
B5: C3057 (antibody, V domains shown)
VH: QVQLVQSGGGLVQPGGSLRLSCEASGLSVSRNYMRWVRQAPGKGLEWVSLIYSGGSTFYADSVKGRFTISRDNSKNTLYLQMTSLRAEDTAVYYCARDLVDYGMDVWGHGTTVTVSS
VL: DIQLTQSPSFLSASVGDRVTITCRASQGISNYLAWYQQKPGKAPQLLIYAASTLQSGVPSRFSGSGSGTEFTLTISSLQPEDFATYFCQQLNSDVITFGQGTRLEIK
notes: as for B1
B6: C3123 (antibody, V domains shown)
VH: QVQLQESGPGLVKPSQTLSLTCAVSGDSVSRGGFYWTWIRQLPGMGLECIGYIDYSGSTHYNPSLKSRVTISLDTSNNQFSLKMTSVTAADTALYYCARGAVPGIGWFDPWGQGTLVTVSS
VL: SYELTQPPSVSVAPGKTASISCGGNNIATKSVHWYQQKPGQAPALVIYYDSDRPSGIPERFSGSNSGNTATLTISRVEAGDEAAYYCQVWESSGDHVVFGGGTKLTVL
notes: as for B1
B7: C3111 (antibody, V domains shown)
VH: EVQLVESGGRVVRPGESLRLSCAASGFNFNDYGMSWVRQVPGKGLEWVSGINWNGAISGYVDSVKGRFIISRDNAKNSLYLQMNSLRAEDTALYHCARAYCGDECYSLLVRGDALDIWGQGTMVTVSS
VL: QSVLTQPPSVSAAPGQTVTISCSGSSSNIGMNDVSWYQHLPGTAPKLLIYDSHKRPSGIPDRFSGSNSGTSATLGITGLQTGDEAHYYCGAWDSSLSAVVFGGGTMLAVL
notes: as for B1
B8: C986 (antibody, V domains shown)
VH: EVQLVQSGAEVKKPGETLKISCKGSGDSFSNYWIGWVRQSPGKGLEWMAIVYPGDSDARYSPSFQGQVTISADKSVTTAYLKWSSLKASDTAIYYCVRGLPVDWYFDLWGRGTLVTVSS
VL: QSVLTQPPSVSGAPEQRVTISCTGSSSNIGAGHDVHWYQQLPGTAPKLLIYNNNNRPSGVPDRFSGSKSGASASLAISGLQAEDEAEYYCQSYDKSLSVLYVLGTGTKVTV
notes: as for B1
B9: C080 (antibody, V domains shown)
VH: EVQLVQSGAEVKKPGESLNISCKASGYSFTIYWIAWVRQLPGKGLEWMGIIYPGDSDTRYSPSFQGQVTISADKSISTAYLQWRSLKASDSAVYYCARGVAVDWYFDLWGRGTLVTVSS
VL: QSVLTQPPSVSGAPGQRVTISCAGSSSNIGAGFDVYWYQQLPGTAPKLLIYGNNNRPSGVPDRFSGSKSGTSASLAITGLQAEDEADYYCQSSGSVLSDLYVFGTGTKVTVL
notes: as for B1
B10: C099 (antibody, V domains shown)
VH: EVQLVESGGGLIQPGGSLRLSCAASGITVSSNYMSWVRQAPGKGLEWVSVMYAGGSTFYADSVKGRFTISRDDSKNTLFLQMNSLRAEDTAIYYCARDLYSSGGTDIWGQGTMVTVSS
VL: EIVLTQSPGTLSLSPGERATLSCRASQSIGSSYLAWYQQKPGLAPRLLIYGASRRATGIPDKFSGSGSGADFTLTISRLEPEDFAVYYCQQYGSSPGTFGQGTKVEIK
notes: as for B1
B11: C1002 (antibody, V domains shown)
VH: EVQLVESGGGLVQPGGSLRLSCAASEFIVSSNYMTWVRQAPGKGLEWVSIMYPGGSTFYADSVKGRFTISRDNSKNTLYLQINRLRAEDTAVYYCARDIAGRLDYWGQGTLVTVSS
VL: DIQMTQSPSSLSASVGDRVTITCQASQDINNYLNWYQQKPGKAPKLLIYDASNLETGVPSRFSGSGSGTDFSFTISSLQPEDIATYYCQQYDNLSRLTFGGGTKVEIK
notes: as for B1
B12: C2593 (antibody, V domains shown)
VH: QVQLVQSGAEVKKPGSSVKVSCKASGGTFNSYAITWVRQAPGQGLEWMGGIIFIFDTANYAQKFQGRVTITADESTSTVYMELSSLRSEDTAVYYCARPGAELRDHYYYYGMDVWGQGTTVTVSS
VL: DIVMTQSPLSLPVTPGEPASISCRSTQSLLHSNGNNYLDWYLQKPGQSPQLLIYLASNRAPGVPDRFSGSGSGTDFTLRISRVEAEDVGVYYCMQALQTPPTFGQGTRLEIK
notes: as for B1
B13: C1068 (antibody, V domains shown)
VH: QVQLVESGGGVVQPGRSLRLSCAASGFTFSTFAMHWVRQAPGKGLEWVAVTSYDGSNKYYADSVKGRFTISRDNSKNTLYLQMNSLRAEDTAVYYCARGLLWFGESEYFQHWGQGTLVTVSS
VL: not shown
notes: as for B1
B14: C996 (antibody, V domains shown)
VH: EVQLVESGGGLVQPGGSLRLSCVASGFTSTNYDMHWVRQAPGRGLQWVSSIGTAGDTYYPGSVRGRFTISRENAKNSLDLQMNSLRVGDTAVYYCARGQRGYYDRSGYYWGWRAFDIWGQGTMVTVSS
VL: SYELTQPPSVSVAPGQTARITCGGNNIGNKSVYWYQQKPGQAPVLVVYDDSGRPSGIPERFSGSNSANTATLTISRVEAGDEADYYCQVWDNNSDQFGGGTKLTVL
notes: as for B1
B15: C022 (antibody, V domains shown)
VH: QVQLQESGPGLVKPSETLSVTCTVSGGSISSSRYYWGWIRQPPGKGLEWIGSIYYSGSTYYNPSLKSRVTISVDTSKNQFSLKLSSVTAADTAVYYCARHAAAYYDRSGYYFIEYFQHWGQGTLVTVSS
VL: DIQMTQSPSTLSASVGDSVTITCRASQSISSWLAWYQQKPGKAPKLLIYKASSLESGVPSRFSGSGSGTEFTLTISSLQPDDFATYYCQQYNNYRYTFGQGTKLEIK
notes: as for B1
B16: C118 (antibody, V domains shown)
VH: QVQLVESGGGVVQPGRSLRLSCAASGFTFSNYAMHWVRQAPGKGLEWVAVISYDGSNKYYADSVKGRFTISRDNSKNTLYLQMNSLRAEDTAIYYCASGYTGYDYFVRGDYYGLDVWGQGTTVTVSS
VL: QPVLTQSPSASASLGASVKLTCTLSSGHSSYAIAWHQQQPEKGPRYLMKLNTDGSHSKGDGIPDRFSGSSSGAERYLTISSLQSEDEADYYCQTWGTGILVFGGGTKLTVL
notes: as for B1

Target: WT RBD (SARS-CoV-2 Wuhan-Hu-1 spike receptor binding domain) (SARS-CoV-2 (Wuhan-Hu-1), UniProt P0DTC2)
Test: BLI
Conditions: both partners purified

| Binder | Kd [nM] |
| --- | --- |
| B1 | 1.47 |
| B2 | 0.201 |
| B3 | 2.49 |
| B4 | 1.1 |
| B5 | 2.08 |
| B6 | 1.57 |
| B7 | 0.236 |
| B8 | 0.472 |
| B9 | 0.286 |
| B10 | 0.00214 |
| B11 | 0.441 |
| B12 | 1.37 |
| B13 | 28.8 |
| B14 | 3.72 |
| B15 | 3.15 |
| B16 | 2.66 |
